Measurements taken from paper PMC7615710, “ASPP2 binds to hepatitis C virus NS5A protein via an SH3 domain/PxxP motif-mediated interaction and potentiates infection” (The Journal of general virology, 2023).

B1: ASPP2 C-terminal domain (925-1128) (domain or fragment)
chain: NPLALLLDSSLEGEFDLVQRIIYEVDDPSLPNDEGITALHNAVCAGHTEIVKFLVQFGVNVNAADSDGWTPLHCAASCNNVQVCKFLVESGAAVFAMTYSDMQTAADKCEEMEEGYTQCSQFLYGVQEKMGIMNKGVIYALWDYEPQNDDELPMKEGDCMTIIHREDEDEIEWWWARLNDKEGYVPRNLLGLYPRIKPRQRSLA
notes: also called ASPP2 CTD
B2: ASPP1 C-terminal domain (887-1090) (domain or fragment)
chain: NPLALLLDASLEGEFDLVQRIIYEVEDPSKPNDEGITPLHNAVCAGHHHIVKFLLDFGVNVNAADSDGWTPLHCAASCNSVHLCKQLVESGAAIFASTISDIETAADKCEEMEEGYIQCSQFLYGVQEKLGVMNKGVAYALWDYEAQNSDELSFHEGDALTILRRKDESETEWWWARLGDREGYVPKNLLGLYPRIKPRQRTLA
notes: also called ASPP1 CTD

How the values were obtained:
Experiment in all cases: ITC; 450 or 300 uM NS5A PRR peptide (syringe) titrated to 30 uM ASPP CTD or SH3 domain (cell), 12 °C, 25 mM HEPES pH 7.5, 150 mM NaCl, 500 uM TCEP; 25 steps of 10 ul; AB hetero association model (SEDPHAT)
Details in all cases: both partners purified
[1] = molecular target: T1, HCV [1a.1] NS5A PRR peptide (Hepatitis C virus genotype 1a (strain 1))
T1 construct: source: synthetic peptide, custom made (TUCF)

[2] = molecular target: B2
[3] = molecular target: B1

Binder | Kd [1] | Kd [2] | Kd [3]
B1 | 0.234 µM |  | 
Lyn SH3 domain (65-122) (domain or fragment) GDIVVALYPYDGIHPDDLSFKKGEKMKVLEEHGEWWKAKSLLTKKEGFIPSNYVAKLN | 5.1 µM |  | 
WLPPPKKAPTPPPRRRRTVGL (also called NS5A (2a); NS5A PRR peptide (JFH-1); source: synthetic peptide, custom made (TUCF)) [HCV [2a.JFH-1] NS5A PRR peptide] |  | 3.78 µM | 0.0424 µM
Grb2 SH3 domain (1-58) (domain or fragment) MEAIAKYDFKATADDELSFKRGDILKVLNEECDQNWYKAELNGKDGFIPKNYIEMKPH | 7.96 µM |  | 
LASP1 SH3 domain (205-261) (domain or fragment) KRYRAVYDYSAADEDEVSFQDGDTIVNVQQIDDGWMYGTVERTGDTGMLPANYVEAI | 2.3 µM |  | 
WLPPAKAPPIPPPRRKRTVVL (source: synthetic peptide, custom made (TUCF)) [HCV [1b.Con1] NS5A PRR peptide] |  | 6.7 µM | 0.0758 µM
WLPPAKQPPVPSPRRKRTVQL (source: synthetic peptide, custom made (TUCF)) [HCV [4a.ED43] NS5A PRR peptide] |  | 42.8 µM | 0.741 µM
B2 | 9.27 µM |  | 
Fyn SH3 domain (85-142) (domain or fragment) not shown | 5.89 µM |  | 
